We go through six molecules from patent CN101151278A (GENENTECH INC, dated 2008).

Positions count from the first letter of the chain named. Names and notes keep the numbering of the source.

Assay [1] concerns the target T1, CD20 on WIL2-S cells (human, UniProt P11836 1-297).
T1 construct: whole, on cells; also called CD20抗原; 人CD20
T1 sequence (looked up): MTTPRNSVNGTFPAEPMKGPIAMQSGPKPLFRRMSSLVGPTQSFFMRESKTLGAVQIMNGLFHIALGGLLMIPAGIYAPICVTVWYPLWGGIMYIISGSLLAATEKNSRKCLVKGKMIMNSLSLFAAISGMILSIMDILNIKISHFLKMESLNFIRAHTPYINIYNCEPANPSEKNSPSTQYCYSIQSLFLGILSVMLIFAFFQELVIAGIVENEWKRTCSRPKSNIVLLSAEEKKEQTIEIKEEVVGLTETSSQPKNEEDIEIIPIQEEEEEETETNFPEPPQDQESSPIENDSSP
Briefly: competitive Scatchard on WIL2-S cells, apparent Kd; competitor of 125I-2H7.v138.

Assay [2] has as its target T1, CD20 on WIL2-S cells. Briefly: competitive Scatchard on WIL2-S cells, apparent Kd; competitor of 125I-2H7.v511.
For assay [3], the target named is T2, 人FcRn (human, UniProt P55899 24-297; P61769 21-119, limits assumed).
T2 construct: immobilised on a CM5 chip (BIAcore) or biotinylated and captured on NeutrAvidin (ELISA); also called huFcRn; human FcRn
T2 sequence (P55899 24-297 limits assumed, chain 1 of 2): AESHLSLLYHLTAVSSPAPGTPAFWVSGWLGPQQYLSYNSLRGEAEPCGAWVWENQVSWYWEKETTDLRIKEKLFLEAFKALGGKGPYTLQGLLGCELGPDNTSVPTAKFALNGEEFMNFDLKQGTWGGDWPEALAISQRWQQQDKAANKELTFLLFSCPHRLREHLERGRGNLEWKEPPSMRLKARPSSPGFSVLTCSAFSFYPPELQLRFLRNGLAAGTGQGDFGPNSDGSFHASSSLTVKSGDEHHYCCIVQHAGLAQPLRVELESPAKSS
T2 sequence (P61769 21-119 limits assumed, chain 2 of 2): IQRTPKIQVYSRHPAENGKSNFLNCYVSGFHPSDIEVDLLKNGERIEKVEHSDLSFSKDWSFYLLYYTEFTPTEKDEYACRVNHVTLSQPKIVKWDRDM
Briefly: ELISA, biotinylated human FcRn on NeutrAvidin plate, pH 6.0. In general terms: An ELISA detects its analyte on a solid surface through an enzyme-linked reagent.

The target in assay [4] is T2, 人FcRn. Briefly: ELISA, biotinylated human FcRn on NeutrAvidin plate, pH 7.4.

B1: hu2H7.v511 (antibody, human IgG1, kappa, V domains shown)
VH: EVQLVESGGGLVQPGGSLRLSCAASGYTFTSYNMHWVRQAPGKGLEWVGAIYPGNGATSYNQKFKGRFTISVDKSKNTLYLQMNSLRAEDTAVYYCARVVYYSYRYWYFDVWGQGTLVTVSS
VL: DIQMTQSPSSLSASVGDRVTITCRASSSVSYLHWYQQKPGKAPKPLIYAPSNLASGVPSRFSGSGSGTDFTLTISSLQPEDFATYYCQQWAFNPPTFGQGTKVEIKR
notes: full-length IgG1
Consider B1, for which the results for the Kd in the assay with CD20 on WIL2-S cells [1] and with CD20 on WIL2-S cells [2] were 0.11 nM and 0.45 nM, respectively.

B2: 2H7.v477 (antibody, human IgG1, kappa)
heavy: EVQLVESGGGLVQPGGSLRLSCAASGYTFTSYNMHWVRQAPGKGLEWVGAIYPGNGATSYNQKFKGRFTISVDKSKNTLYLQMNSLRAEDTAVYYCARVVYYSASYWYFDVWGQGTLVTVSSASTKGPSVFPLAPSSKSTSGGTAALGCLVKDYFPEPVTVSWNSGALTSGVHTFPAVLQSSGLYSLSSVVTVPSSSLGTQTYICNVNHKPSNTKVDKKVEPKSCDKTHTCPPCPAPELLGGPSVFLFPPKPKDTLMISRTPEVTCVVVDVSHEDPEVKFNWYVDGVEVHNAKTKPREEQYNATYRVVSVLTVLHQDWLNGKEYKCKVSNAALPAPIAATISKAKGQPREPQVYTLPPSREEMTKNQVSLTCLVKGFYPSDIAVEWESNGQPENNYKTTPPVLDSDGSFFLYSKLTVDKSRWQQGNVFSCSVMHEALHWHYTQKSLSLSPGK
light: DIQMTQSPSSLSASVGDRVTITCRASSSVSYLHWYQQKPGKAPKPLIYAPSNLASGVPSRFSGSGSGTDFTLTISSLQPEDFATYYCQQWAFNPPTFGQGTKVEIKRTVAAPSVFIFPPSDEQLKSGTASVVCLLNNFYPREAKVQWKVDNALQSGNSQESVTEQDSKDSTYSLSSTLTLSKADYEKHKVYACEVTHQGLSSPVTKSFNRGEC
notes: IgG1; 2H7.v138 with N434W
With B2, in the assay with 人FcRn [3], the binding result is reported as “binds”.

B3: 2H7.v364 (antibody, human IgG1, kappa, name in EU numbering)
heavy: B2 heavy with W439A
light: B2 light
notes: IgG1; 2H7.v138 background with the N434 change
As for B3, the binding result with 人FcRn [4] is listed as “binds”.

B4: 2H7.v138 (antibody, human IgG1, kappa)
heavy: B2 heavy with W439N
light: B2 light
notes: IgG1
B4: the binding result with 人FcRn [4] is given as “binds”.

B5: 2H7.v479 (antibody, human IgG1, kappa, name in EU numbering)
heavy: B2 heavy with W439Y
light: B2 light
notes: as for B3
With B5, the binding result with 人FcRn [4] was “binds”.

B6: 2H7.v478 (antibody, human IgG1, kappa, name in EU numbering)
heavy: B2 heavy with W439F
light: B2 light
notes: as for B3
With B6, the binding result with 人FcRn [3] was “binds”.
